Measurements reported in PMC12802913.

Columns and labels:
CHD4 PHD1-2 (human) = assay: pull-down (GST), qPCR; details: Pull-down: 25 mM HEPES pH 7.4, 150 mM NaCl, 0.5 mM TCEP, 4 C overnight, 50 nM nucleosome; NMR at 0 and 100 mM NaCl (buffer not in material)
[1] = target: GST fusion of CHD4 PHD1-2 (aa 364-506) (human) (UniProt Q14839); assay: pull-down; GST-PHD1 or GST-PHD1-2 pre-bound to glutathione magnetic agarose beads; 100 ul of 50 nM nucleosome, 4°C overnight; 25 mM HEPES pH 7.4, 150 mM NaCl, 0.5 mM TCEP; bound nucleosome quantified by qPCR of the 601 DNA, normalised to input
Chain of UniProt Q14839 (Q14839 364-506): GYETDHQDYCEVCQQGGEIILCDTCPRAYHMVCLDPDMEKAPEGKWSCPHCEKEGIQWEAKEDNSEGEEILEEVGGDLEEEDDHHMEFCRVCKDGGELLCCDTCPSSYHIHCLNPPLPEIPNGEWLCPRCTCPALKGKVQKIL

fold increase of pull-down over WT nucleosome [1] | Substance | binding signal (fold vs WT nucleosome) (CHD4 PHD1-2 (human))
 | H3.3 G33R nucleosome, 601 DNA | > 2
> 2 fold | ([H3.3G33R]) nucleosome core particle (from UniProt P84243 1-136; P62805 1-103; P0C0S8 1-130; P62807 1-126) (complex) | 
